Results as given in the supplement of paper PMC9233669.
This sample holds only a part of the variants without activity.

These sequences were tested on biotinyl-Phe-oxazolone (assay: self-aminoacylation, catalytic enhancement (BFO) (fold over background); higher = more active; k-Seq, kA / k0A0; sequences stand for … in GGGAAUGGAUCCACAUCUACGAAUUC…UUCACUGCAGACUUGACGAAGCUG).
Outline: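 Each biotinyl-aminoacyl-oxazolone, at 2–1250 μM, was incubated with mutagenized RNA pools (0.43 μM) carrying a 21-nt variable region. The 50 μL reactions contained HEPES/NaCl/KCl/MgCl2/CaCl2 buffer with 5% acetonitrile at pH 6.9–7.0 and ran for 90 minutes at room temperature. After streptavidin capture, RNA was measured by qPCR in triplicate and by Illumina sequencing, and catalytic enhancement was calculated as median kA over the uncatalyzed rate from a pseudo-first-order fit of per-sequence fraction reacted.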

Sequence | self-aminoacylation
AAGCUUCCUAAUAGUCGCAAG [Fam3.1 aminoacylation ribozyme variant] | 2.32
AAGCUUGCUAAUAGUUGCAAG [Fam3.1 aminoacylation ribozyme variant] | 2.19
AAGGUUGCCAAUAGUCGCAAG [Fam3.1 aminoacylation ribozyme variant] | 2.4
AAGGUUGCUAAUAGUCGCACG [Fam3.1 aminoacylation ribozyme variant] | 2.39
AAGUUCGCUAAUAGUCUCAAG [Fam3.1 aminoacylation ribozyme variant] | 2.72
AAGUUCGGUAAUAGUCGCAAG [Fam3.1 aminoacylation ribozyme variant] | 3.24
AAGUUUACUAAUAGUCGAAAG [Fam3.1 aminoacylation ribozyme variant] | 2.51
AAGUUUCCUAAUAGUUGCAAG [Fam3.1 aminoacylation ribozyme variant] | 2.63
AAGUUUCCUAAUGGUCGCAAG [Fam3.1 aminoacylation ribozyme variant] | 2.62
AAGUUUGCUAACAGCCGCAAG [Fam3.1 aminoacylation ribozyme variant] | 3.09
AAGUUUGCUAAUGGUCGCAAC [Fam3.1 aminoacylation ribozyme variant] | 6.25
AAGUUUGCUGACAGUCGCAAG [Fam3.1 aminoacylation ribozyme variant] | 2.12
AAGUUUGCUUAUAGUCGCAAA [Fam3.1 aminoacylation ribozyme variant] | 2.38
AAGUUUUCCAAUAGUCGCAAG [Fam3.1 aminoacylation ribozyme variant] | 2.43
AAGUUUUCUAAUAGUCGCAAU [Fam3.1 aminoacylation ribozyme variant] | 2.37
AAGUUUUCUCAUAGUCGCAAG [Fam3.1 aminoacylation ribozyme variant] | 3.59
AAUACCCUGGUCAUCGAGUUA [Fam2.1 aminoacylation ribozyme variant] | 2.17

Sequence | self-aminoacylation
ACACACUUCAAGCGAUCGGUC [Fam1B.1 aminoacylation ribozyme variant] | 2.18
ACGUUUGCUAAUAGUCGCAGG [Fam3.1 aminoacylation ribozyme variant] | 3.87
ACGUUUGCUAAUAGUCGGAAG [Fam3.1 aminoacylation ribozyme variant] | 3.98
AGGUUUGCUUAUAGUCGCAAG [Fam3.1 aminoacylation ribozyme variant] | 2.89
AGGUUUUCUAAUAGUCGCAAG [Fam3.1 aminoacylation ribozyme variant] | 2.83
AGUACCCUGGUCAUCGAGUUA [Fam2.1 aminoacylation ribozyme variant] | 2.58
AUUAACCUAGGUCAUCGUGUG [Fam2.2 aminoacylation ribozyme variant] | 3.17
AUUACCCUGGUCAGCGAUUGA [Fam2.1 aminoacylation ribozyme variant] | 2.52
AUUACCCUGGUCAUCGUGUGG [Fam2.1 aminoacylation ribozyme variant] | 2.9
AUUACCCUGGUCGUCGAGUGG [Fam2.1 aminoacylation ribozyme variant] | 2.7
AUUAGCCUCGUCAUCGAGUGA [Fam2.1 aminoacylation ribozyme variant] | 2.19
AUUAGCCUGGUCAUCGAGUGC [Fam2.1 aminoacylation ribozyme variant] | 2.04
AUUCAACUAGGUCAUCGUGUG [Fam2.2 aminoacylation ribozyme variant] | 5.52
AUUCAACUAGGUCGUCGGGUG [Fam2.2 aminoacylation ribozyme variant] | 6.9
AUUCACCUACGUCAUCGGCUG [Fam2.2 aminoacylation ribozyme variant] | 2.24
AUUCACCUACUUCAUCGGGUG [Fam2.2 aminoacylation ribozyme variant] | 3.44
